{
  "source": "the supplement of paper PMC9233669",
  "key": {"biotinyl-Phe-oxazolone": {"test_system": "biotinyl-Phe-oxazolone", "assay": "self-aminoacylation, catalytic enhancement (BFO) (fold over background); higher = more active; k-Seq, kA / k0A0; sequences stand for … in GGGAAUGGAUCCACAUCUACGAAUUC…UUCACUGCAGACUUGACGAAGCUG", "procedure,_shortened": "(§1)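 Working in 50 μL HEPES/NaCl/KCl/MgCl2/CaCl2 buffer with 5% acetonitrile at pH 6.9–7.0, mutagenized RNA pools (0.43 μM; 21-nt variable region) were reacted with 2–1250 μM of each biotinyl-aminoacyl-oxazolone for 90 minutes at room temperature. Streptavidin capture followed, with quantification by triplicate qPCR and Illumina sequencing. Catalytic enhancement is reported as median kA over the uncatalyzed rate, the low-activity peak of a bimodal Gaussian fit to the data.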"}, "biotinyl-Val-oxazolone": {"test_system": "biotinyl-Val-oxazolone", "assay": "self-aminoacylation, catalytic enhancement (BVO) (fold over background); higher = more active; k-Seq, kA / k0A0; sequences stand for … in GGGAAUGGAUCCACAUCUACGAAUUC…UUCACUGCAGACUUGACGAAGCUG", "procedure,_shortened": "as §1"}, "biotinyl-Met-oxazolone": {"test_system": "biotinyl-Met-oxazolone", "assay": "self-aminoacylation, catalytic enhancement (BMO) (fold over background); higher = more active; k-Seq, kA / k0A0; sequences stand for … in GGGAAUGGAUCCACAUCUACGAAUUC…UUCACUGCAGACUUGACGAAGCUG", "procedure,_shortened": "as §1"}, "biotinyl-Trp-oxazolone": {"test_system": "biotinyl-Trp-oxazolone", "assay": "self-aminoacylation, catalytic enhancement (BWO) (fold over background); higher = more active; k-Seq, kA / k0A0; sequences stand for … in GGGAAUGGAUCCACAUCUACGAAUUC…UUCACUGCAGACUUGACGAAGCUG", "procedure,_shortened": "as §1"}, "biotinyl-Ile-oxazolone": {"test_system": "biotinyl-Ile-oxazolone", "assay": "self-aminoacylation, catalytic enhancement (BIO) (fold over background); higher = more active; k-Seq, kA / k0A0; sequences stand for … in GGGAAUGGAUCCACAUCUACGAAUUC…UUCACUGCAGACUUGACGAAGCUG", "procedure,_shortened": "as §1"}, "biotinyl-Leu-oxazolone": {"test_system": "biotinyl-Leu-oxazolone", "assay": "self-aminoacylation, catalytic enhancement (BLO) (fold over background); higher = more active; k-Seq, kA / k0A0; sequences stand for … in GGGAAUGGAUCCACAUCUACGAAUUC…UUCACUGCAGACUUGACGAAGCUG", "procedure,_shortened": "as §1"}},
  "note": "Fewer inactive variants are shown than the library holds.",
  "data": [
    {"sequence": "GAGUUUGCCAAUAGUCGCAAG [Fam3.1 aminoacylation ribozyme variant]", "values": [
      {"measurement": "self-aminoacylation", "setting": "biotinyl-Phe-oxazolone", "result": 4.39},
      {"measurement": "self-aminoacylation", "setting": "biotinyl-Val-oxazolone", "result": 1.48},
      {"measurement": "self-aminoacylation", "setting": "biotinyl-Met-oxazolone", "result": 1.1},
      {"measurement": "self-aminoacylation", "setting": "biotinyl-Trp-oxazolone", "result": 2.08},
      {"measurement": "self-aminoacylation", "setting": "biotinyl-Ile-oxazolone", "result": 1.7},
      {"measurement": "self-aminoacylation", "setting": "biotinyl-Leu-oxazolone", "result": 1.09}
    ]},
    {"sequence": "GAGUUUGCUAAUAGUCGUAAG [Fam3.1 aminoacylation ribozyme variant]", "values": [
      {"measurement": "self-aminoacylation", "setting": "biotinyl-Phe-oxazolone", "result": 30.8},
      {"measurement": "self-aminoacylation", "setting": "biotinyl-Val-oxazolone", "result": 1.17},
      {"measurement": "self-aminoacylation", "setting": "biotinyl-Met-oxazolone", "result": 1.4},
      {"measurement": "self-aminoacylation", "setting": "biotinyl-Trp-oxazolone", "result": 8.52},
      {"measurement": "self-aminoacylation", "setting": "biotinyl-Ile-oxazolone", "result": 1.4},
      {"measurement": "self-aminoacylation", "setting": "biotinyl-Leu-oxazolone", "result": 1.28}
    ]},
    {"sequence": "GAGUUUGCUACUAGUCGCAAG [Fam3.1 aminoacylation ribozyme variant]", "values": [
      {"measurement": "self-aminoacylation", "setting": "biotinyl-Phe-oxazolone", "result": 1.59},
      {"measurement": "self-aminoacylation", "setting": "biotinyl-Val-oxazolone", "result": 1.47},
      {"measurement": "self-aminoacylation", "setting": "biotinyl-Met-oxazolone", "result": 1.04},
      {"measurement": "self-aminoacylation", "setting": "biotinyl-Trp-oxazolone", "result": 1.99},
      {"measurement": "self-aminoacylation", "setting": "biotinyl-Ile-oxazolone", "result": 1.31},
      {"measurement": "self-aminoacylation", "setting": "biotinyl-Leu-oxazolone", "result": 1.66}
    ]},
    {"sequence": "GAGUUUGCUAGUAGUCGCAAG [Fam3.1 aminoacylation ribozyme variant]", "values": [
      {"measurement": "self-aminoacylation", "setting": "biotinyl-Phe-oxazolone", "result": 1.92},
      {"measurement": "self-aminoacylation", "setting": "biotinyl-Val-oxazolone", "result": 1.04},
      {"measurement": "self-aminoacylation", "setting": "biotinyl-Met-oxazolone", "result": 1.28},
      {"measurement": "self-aminoacylation", "setting": "biotinyl-Trp-oxazolone", "result": 0.876},
      {"measurement": "self-aminoacylation", "setting": "biotinyl-Ile-oxazolone", "result": 1.21},
      {"measurement": "self-aminoacylation", "setting": "biotinyl-Leu-oxazolone", "result": 0.89}
    ]},
    {"sequence": "GAGUUUGCUCAUAGUCGCAAG [Fam3.1 aminoacylation ribozyme variant]", "values": [
      {"measurement": "self-aminoacylation", "setting": "biotinyl-Phe-oxazolone", "result": 7.43},
      {"measurement": "self-aminoacylation", "setting": "biotinyl-Val-oxazolone", "result": 1.59},
      {"measurement": "self-aminoacylation", "setting": "biotinyl-Met-oxazolone", "result": 1.73},
      {"measurement": "self-aminoacylation", "setting": "biotinyl-Trp-oxazolone", "result": 2.62},
      {"measurement": "self-aminoacylation", "setting": "biotinyl-Ile-oxazolone", "result": 1.72},
      {"measurement": "self-aminoacylation", "setting": "biotinyl-Leu-oxazolone", "result": 2.12}
    ]},
    {"sequence": "GCACACGUCAAGCAAUCGGUC [Fam1B.1 aminoacylation ribozyme variant]", "values": [
      {"measurement": "self-aminoacylation", "setting": "biotinyl-Phe-oxazolone", "result": 11.5},
      {"measurement": "self-aminoacylation", "setting": "biotinyl-Val-oxazolone", "result": 2.85},
      {"measurement": "self-aminoacylation", "setting": "biotinyl-Met-oxazolone", "result": 2.47},
      {"measurement": "self-aminoacylation", "setting": "biotinyl-Trp-oxazolone", "result": 3.95},
      {"measurement": "self-aminoacylation", "setting": "biotinyl-Ile-oxazolone", "result": 2.63},
      {"measurement": "self-aminoacylation", "setting": "biotinyl-Leu-oxazolone", "result": 2.18}
    ]},
    {"sequence": "GCACACUUCAAGCAAUCCGUC [Fam1B.1 aminoacylation ribozyme variant]", "values": [
      {"measurement": "self-aminoacylation", "setting": "biotinyl-Phe-oxazolone", "result": 1.76},
      {"measurement": "self-aminoacylation", "setting": "biotinyl-Val-oxazolone", "result": 1.98},
      {"measurement": "self-aminoacylation", "setting": "biotinyl-Met-oxazolone", "result": 1.2},
      {"measurement": "self-aminoacylation", "setting": "biotinyl-Trp-oxazolone", "result": 2.01},
      {"measurement": "self-aminoacylation", "setting": "biotinyl-Ile-oxazolone", "result": 1.66},
      {"measurement": "self-aminoacylation", "setting": "biotinyl-Leu-oxazolone", "result": 1.71}
    ]},
    {"sequence": "GCACACUUCAAGCAAUCGGUA [Fam1B.1 aminoacylation ribozyme variant]", "values": [
      {"measurement": "self-aminoacylation", "setting": "biotinyl-Phe-oxazolone", "result": 2.95},
      {"measurement": "self-aminoacylation", "setting": "biotinyl-Val-oxazolone", "result": 2.5},
      {"measurement": "self-aminoacylation", "setting": "biotinyl-Met-oxazolone", "result": 1.98},
      {"measurement": "self-aminoacylation", "setting": "biotinyl-Trp-oxazolone", "result": 3.53},
      {"measurement": "self-aminoacylation", "setting": "biotinyl-Ile-oxazolone", "result": 2.84},
      {"measurement": "self-aminoacylation", "setting": "biotinyl-Leu-oxazolone", "result": 2.26}
    ]},
    {"sequence": "GCACACUUCAAGCGAUCGGUC [Fam1B.1 aminoacylation ribozyme variant]", "values": [
      {"measurement": "self-aminoacylation", "setting": "biotinyl-Phe-oxazolone", "result": 1.41},
      {"measurement": "self-aminoacylation", "setting": "biotinyl-Val-oxazolone", "result": 1.82},
      {"measurement": "self-aminoacylation", "setting": "biotinyl-Met-oxazolone", "result": 1.33},
      {"measurement": "self-aminoacylation", "setting": "biotinyl-Trp-oxazolone", "result": 2.19},
      {"measurement": "self-aminoacylation", "setting": "biotinyl-Ile-oxazolone", "result": 1.66},
      {"measurement": "self-aminoacylation", "setting": "biotinyl-Leu-oxazolone", "result": 1.54}
    ]},
    {"sequence": "GCACACUUUAAGCAAUCGGUC [Fam1B.1 aminoacylation ribozyme variant]", "values": [
      {"measurement": "self-aminoacylation", "setting": "biotinyl-Phe-oxazolone", "result": 1.39},
      {"measurement": "self-aminoacylation", "setting": "biotinyl-Val-oxazolone", "result": 1.17},
      {"measurement": "self-aminoacylation", "setting": "biotinyl-Met-oxazolone", "result": 1.04},
      {"measurement": "self-aminoacylation", "setting": "biotinyl-Trp-oxazolone", "result": 1.44},
      {"measurement": "self-aminoacylation", "setting": "biotinyl-Ile-oxazolone", "result": 1.3},
      {"measurement": "self-aminoacylation", "setting": "biotinyl-Leu-oxazolone", "result": 1.11}
    ]},
    {"sequence": "GCACUUCAAACAAUCGGUCUG [Fam1A.1 aminoacylation ribozyme variant]", "values": [
      {"measurement": "self-aminoacylation", "setting": "biotinyl-Phe-oxazolone", "result": 156},
      {"measurement": "self-aminoacylation", "setting": "biotinyl-Val-oxazolone", "result": 2.16},
      {"measurement": "self-aminoacylation", "setting": "biotinyl-Met-oxazolone", "result": 2.32},
      {"measurement": "self-aminoacylation", "setting": "biotinyl-Trp-oxazolone", "result": 62.3},
      {"measurement": "self-aminoacylation", "setting": "biotinyl-Ile-oxazolone", "result": 2.33},
      {"measurement": "self-aminoacylation", "setting": "biotinyl-Leu-oxazolone", "result": 4.11}
    ]},
    {"sequence": "GCUACCCUGGUCAUCGAGUGA [Fam2.1 aminoacylation ribozyme variant]", "values": [
      {"measurement": "self-aminoacylation", "setting": "biotinyl-Phe-oxazolone", "result": 29.5},
      {"measurement": "self-aminoacylation", "setting": "biotinyl-Val-oxazolone", "result": 6.39},
      {"measurement": "self-aminoacylation", "setting": "biotinyl-Met-oxazolone", "result": 11.4},
      {"measurement": "self-aminoacylation", "setting": "biotinyl-Trp-oxazolone", "result": 15.5},
      {"measurement": "self-aminoacylation", "setting": "biotinyl-Ile-oxazolone", "result": 6.27},
      {"measurement": "self-aminoacylation", "setting": "biotinyl-Leu-oxazolone", "result": 12.3}
    ]},
    {"sequence": "GGUCACCUAGGUCAUCGGGUG [Fam2.2 aminoacylation ribozyme variant]", "values": [
      {"measurement": "self-aminoacylation", "setting": "biotinyl-Phe-oxazolone", "result": 30.3},
      {"measurement": "self-aminoacylation", "setting": "biotinyl-Val-oxazolone", "result": 5.01},
      {"measurement": "self-aminoacylation", "setting": "biotinyl-Met-oxazolone", "result": 4.37},
      {"measurement": "self-aminoacylation", "setting": "biotinyl-Trp-oxazolone", "result": 6.88},
      {"measurement": "self-aminoacylation", "setting": "biotinyl-Ile-oxazolone", "result": 4.07},
      {"measurement": "self-aminoacylation", "setting": "biotinyl-Leu-oxazolone", "result": 3.98}
    ]}
  ]
}
